Reference: patent EP1977765A1, “Peptide prodrugs” (Diatos, priority 2007, dated 2008)
Read-outs that look alike come from different tables or passages of the source.

Key:
[1] = system: HCT 116 colon cancer cell line; test: In vitro cytotoxicity, WST-1 viability test; assay type: cell-based; settings: mean of 3 independent experiments
Protocol: The cytotoxicity of different drug conjugates was evaluated using the HCT 116 colon cancer cell line and was compared to the cytotoxicity of the free drug (doxorubicin, mitomycin C or paclitaxel). Cells were seeded at 8 000 cells/well and maintained in Mc Coy medium supplemented with 10% fetal bovine serum for 24 hours before treatment. Cells were incubated with increasing concentrations of drugs or conjugates at 37°C, 5% CO2. The medium was then removed and a WST-1 test (purchased from Roche) was performed according to the manufacturer's instructions. The cytotoxicity of the tested conjugates was expressed as the molar concentration inhibiting 50% of the cell viability (IC50), calculated using Graph Pad Prism 3.02 software. Experimental data are presented as the mean of three independent experiments performed in duplicate.
Table 1: Drug concentration that inhibits 50% of cell viability (IC50) using the HCT 116 cell line. Data represent the mean value of 3 independent experiments. After the indicated exposure time at 37°C, cells were rinsed and a viability assay (WST1 test) was performed to determine IC50.

[2] = In vitro human plasma stability of drug conjugates (HPLC); assay type: in vitro ADME; settings: for remaining at 6 h, 100 µM: 100 µM paclitaxel conjugates, read-out: plasma stability (% conjugate)
Protocol: Human plasma (citrated human blood was centrifuged at 600 g for 10 min at +4°C, plasma was recovered and aliquots stored at -20°C) was used to assess the stability of the following drug conjugates: Suc-ALAL-doxorubicin, Suc-βALAL-doxorubicin, TA-ALAL-doxorubicin, Suc-βALAL-MMC, TA-ALAL-MMC, Suc-βALAL-paclitaxel and TA-ALAL-paclitaxel. The drug conjugates (50 µM doxorubicin or MMC, 100 µM paclitaxel conjugates) were incubated at 37°C with human plasma either for 0, 2 or 6 hours, 50 µL of sample were collected at each time point and extraction was performed immediately.
For the doxorubicin conjugate and metabolites, 150 µL of acetonitrile was added to the 50 µL samples. Samples were vortexed and centrifuged for 10 min at 13 000 rpm at room temperature. 100 µL were harvested and 200 µL of 2% ammonium formate pH 4.0 were added before centrifugation (10 min at 13 000 rpm). HPLC analysis (at 560 nm) was performed using the supernatant.
For MMC conjugate and metabolites were extracted prior to HPLC analysis. 100 µL of acetonitrile was added to the 50 µL of sample, prior to vortexing (10 seconds) and centrifugation (10 min at 13 000 rpm) at room temperature. 50 µL of supernatant was recovered and mixed with 150 µL of Phosphate Buffer Saline (PBS) 1X. After centrifugation (10 min at 13 000 rpm), 150 µL of supernatant were collected for HPLC analysis. Stability and reactivation were evaluated by HPLC analysis (at 270 nm) and MMC conjugate and metabolite peak areas were compared.
For the paclitaxel conjugate and metabolites, 150 µL of acetonitrile was added to 50 µL of sample, vortexed and centrifuged for 10 min at 13 000 rpm at room temperature. 100 µL of supernatant was recovered and mixed with 100 µL of water. After centrifugation (10 min at 13 000 rpm), the supernatant was collected for HPLC analysis (at 230 nm).

[3] = In vivo toxicity of doxorubicin conjugates in LS 174T tumor-bearing nude mice (i.v.); settings: for equitoxic dose: i.v.
Protocol: Toxicity studies were conducted in LS 174T tumor-bearing nude mice following intravenous administration. […] LS 174T tumors were established by a subcutaneous implantation of cells (3 x 10^7 cells injected) in the right flank of 7 weeks old female NMRI nude mice (Janvier, France). The day of the first injection, animals were randomly assigned to groups of 6 animals. The TA-ALAL-doxorubicin and Suc-ALAL-doxorubicin conjugates were dissolved in saline and Suc-βALAL-doxorubicin was prepared in glucose 5%. All conjugates were delivered by bolus intravenous injection (i.v.) in the lateral tail vein at 10 µL/g. During the course of the experiment, clinical signs and body weight were controlled at least twice a week. The experiment was repeated twice. Table 2: In vivo toxicity of TA-ALAL-doxorubicin conjugate compared to Suc-βALAL-doxorubicin and Suc-ALAL-doxorubicin in LS 174T tumor-bearing mice.

LS 174T tumors [4] = test: In vivo anti-tumoral efficacy of doxorubicin conjugates in the LS 174T tumor model; set-up: species or system NMRI nude mice
From the text: (§1) Treatments were initiated when the tumors had reached a size of 100 mm^3 (calculated using the following formula: [length x width^2]/2). […] During the course of the experiment, clinical signs, body weight and tumor volume were controlled twice a week. Results are presented as the evolution of mean tumor volume as a function of time. Optimal T/C (ratio of mean tumor volume of treated versus control mice) values were used as a measure of treatment efficacy. The optimal T/C% reflects the maximal tumor growth inhibition achieved. The experiment was repeated twice.

LS 174T tumors [5] = test: In vivo anti-tumoral efficacy of mitomycin C conjugates in the LS 174T tumor model; set-up: species or system NMRI nude mice
From the text: as §1
The in vivo anti-tumoral efficacy of TA-ALAL-MMC was compared to that of Suc-βALAL-MMC in the LS 174T tumor model. The establishment of the LS 174T tumors and the treatments were carried out as previously described in Example V. TA-ALAL-MMC conjugate was dissolved in saline and Suc-βALAL-MMC conjugate was prepared in 3% DMSO in Sodium phosphate buffer (15mM). […] During the course of the experiment, clinical signs, body weight and tumor volume were controlled twice a week. The experiment was repeated twice. Table 4: Anti-tumoral efficacy of TA-ALAL-MMC compared to Suc-βALAL-MMC in the LS 174T tumor model.

[6] = after 6 hours in human plasma at 37°C
[7] = Experiment 1, dose 67.7 µmol/kg i.v., LS 174T tumor-bearing mice
[8] = Experiment 1, dose 67.7 µmol/kg i.v., groups of 6 animals
[9] = Experiment 2, dose 77.4 µmol/kg i.v.
[10] = Experiment 2, LS 174T tumor-bearing mice
[11] = Experiment 1, dose 67.7 µmol/kg i.v.
[12] = Experiment 1, dose 60 µmol/kg i.v.
[13] = Experiment 2, dose 80 µmol/kg i.v.

`CC(=O)O[C@H]1C(=O)[C@@]2(C)[C@H]([C@H](OC(=O)c3ccccc3)[C@]3(O)C[C@H](OC(=O)[C@H](OC(=O)C(CC(C)C)NC(=O)C(C)NC(=O)C(CC(C)C)NC(=O)C(C)NC(=O)C4C(C(=O)O)C(C(=O)O)C4C(=O)O)[C@@H](NC(=O)c4ccccc4)c4ccccc4)C(C)=C1C3(C)C)[C@]1(OC(C)=O)CO[C@@H]1C[C@@H]2O` (some centres unmarked) [TA-ALAL-paclitaxel, TetraAcid-ALAL-paclitaxel] showed an IC50 ([1]; incubation time 4h + 72 h) of 10 µM and a remaining at 6 h, 100 µM [2, 6] of 43%.
`COc1cccc2c1C(=O)c1c(O)c3c(c(O)c1C2=O)CC(O)(C(=O)CO)CC3OC1CC(NC(=O)C(CC(C)C)NC(=O)C(C)NC(=O)C(CC(C)C)NC(=O)C(C)NC(=O)CCC(=O)O)C(O)C(C)O1` (centres unmarked) [Suc-ALAL-dox, Suc-ALAL-doxorubicin] gave an IC50 ([1]; incubation time 48 h) of 10 µM, a remaining at 2 h, 50 µM ([2]; human, plasma) of 80% and a remaining at 6 h, 50 µM ([2]; human, plasma) of 54%. The “Maximal body weight loss %” value [3, 7] was 36.1%, the dead animals [3, 8] was 3 and the animals died (LS 174T tumors [4]; [8]) was 3 animals died.
Compound `COc1cccc2c1C(=O)c1c(O)c3c(c(O)c1C2=O)C[C@@](O)(C(=O)CO)C[C@@H]3O[C@H]1C[C@H](N)[C@H](O)[C@H](C)O1` [doxorubicin (dox), doxorubicin] has an IC50 ([1]; Homo sapiens, incubation time 48 h) of 0.034 µM.
`COc1cccc2c1C(=O)c1c(O)c3c(c(O)c1C2=O)CC(O)(C(=O)CO)CC3OC1CC(NC(=O)C(CC(C)C)NC(=O)C(C)NC(=O)C(CC(C)C)NC(=O)C(C)NC(=O)C2C(C(=O)O)C(C(=O)O)C2C(=O)O)C(O)C(C)O1` (centres unmarked) [TA-ALAL-dox, TetraAcid-ALAL-doxorubicin] gave an IC50 ([1]; incubation time 48 h) greater than 10 µM, a remaining at 2 h, 50 µM ([2]; after 2 hours in human plasma at 37°C, 50 µM doxorubicin conjugates, read-out: percentage of intact conjugate) of 83% and a remaining at 6 h, 50 µM ([2]; after 6 hours in human plasma at 37°C, 50 µM doxorubicin conjugates, read-out: percentage of intact conjugate) of 67%. For the same compound, the “Maximal body weight loss %” value [3, 7] was 13.7%, the “Maximal body weight loss %” value ([3]; Experiment 2, dose 55.1 µmol/kg i.v.) was 11.3% and the “Maximal body weight loss %” value [3, 9] was 17.9%. For the same compound, the equitoxic dose [3, 10] was 77.4 µmol/kg, the “Optimal T/C (%)” value (LS 174T tumors [4]; [11]) was 42% and the “Optimal T/C (%)” value (LS 174T tumors [4]; [9]) was 36%.
With Suc-βALAL-mitomycin C [Suc-βALAL-MMC] the IC50 ([1]; incubation time 24 h) was 67 µM, the “% of conjugates remaining” value ([2]; after 6 hours in human plasma at 37°C, 50 µM MMC conjugates) was 73% and the “Maximal body weight loss %” value (LS 174T tumors [5]; [12]) was 14.5%. The “Optimal T/C (%)” value (LS 174T tumors [5]; [12]) was 48%, the “Maximal body weight loss %” value (LS 174T tumors [5]; [13]) was 15.9% and the “Optimal T/C (%)” value (LS 174T tumors [5]; [13]) was 43%.
Work on `CC(=O)O[C@H]1C(=O)[C@@]2(C)[C@H]([C@H](OC(=O)c3ccccc3)[C@]3(O)C[C@H](OC(=O)[C@H](OC(=O)C(CC(C)C)NC(=O)C(C)NC(=O)C(CC(C)C)NC(=O)CCNC(=O)CCC(=O)O)[C@@H](NC(=O)c4ccccc4)c4ccccc4)C(C)=C1C3(C)C)[C@]1(OC(C)=O)CO[C@@H]1C[C@@H]2O` (some centres unmarked) [Suc-βALAL-paclitaxel] yielded an IC50 ([1]; incubation time 4h + 72 h) of 0.762 µM and a remaining at 6 h, 100 µM [2, 6] of 41%.
With `CO[C@@]12[C@H](COC(N)=O)C3=C(C(=O)C(C)=C(N)C3=O)N1C[C@@H]1N[C@@H]12` [Mitomycin C (MMC), mitomycin C] the IC50 ([1]; incubation time 24 h) was 5 µM.
Compound `CC(=O)O[C@H]1C(=O)[C@@]2(C)[C@H]([C@H](OC(=O)c3ccccc3)[C@]3(O)C[C@H](OC(=O)[C@H](O)[C@@H](NC(=O)c4ccccc4)c4ccccc4)C(C)=C1C3(C)C)[C@]1(OC(C)=O)CO[C@@H]1C[C@@H]2O` [paclitaxel] has an IC50 ([1]; Homo sapiens, incubation time 4h + 72 h) of 0.02 µM.
`COc1cccc2c1C(=O)c1c(O)c3c(c(O)c1C2=O)CC(O)(C(=O)CO)CC3OC1CC(NC(=O)C(CC(C)C)NC(=O)C(C)NC(=O)C(CC(C)C)NC(=O)CCNC(=O)CCC(=O)O)C(O)C(C)O1` (centres unmarked) [Suc-βALAL-dox, Suc-βALAL-doxorubicin] showed an IC50 ([1]; incubation time 48 h) greater than 10 µM, a remaining at 2 h, 50 µM ([2]; human, plasma) of 77.2% and a remaining at 6 h, 50 µM ([2]; human, plasma) of 47.5%. For the same compound, the equitoxic dose [3, 10] was 47.4 µmol/kg, the “Maximal body weight loss %” value ([3]; mouse, in vivo, iv) was 15.9% and the “Optimal T/C (%)” value (LS 174T tumors [4]; [11]) was 52%. For the same compound, the “Optimal T/C (%)” value (LS 174T tumors [4]; Experiment 2, dose 47.4 µmol/kg i.v.) was 52%.
